Results as given in paper PMC8006934.

Legend:
[1] = target: FcγRIIb, human, C-terminally biotinylated (human) (UniProt P31994); experiment: SPR; settings: natural protein; remark: other sources report otherwise
[2] = target: FcγRIa, FcγRIIa/b, and FcγRIIIa; experiment: SPR; IBIS MX96 array; C-terminally biotinylated FcRs spotted at different densities (100–1 nM) on one SensEye G-streptavidin sensor, blocked with biotinylated BSA; CRP injected in 2-fold dilutions from 0.98 to 2,000 nM in 20 mM Tris, 280 mM NaCl, 5 mM CaCl2, pH 8.0; KD by equilibrium fitting to Rmax = 500

Sequence of FcγRIIb, human, C-terminally biotinylated (human) (P31994 43-217): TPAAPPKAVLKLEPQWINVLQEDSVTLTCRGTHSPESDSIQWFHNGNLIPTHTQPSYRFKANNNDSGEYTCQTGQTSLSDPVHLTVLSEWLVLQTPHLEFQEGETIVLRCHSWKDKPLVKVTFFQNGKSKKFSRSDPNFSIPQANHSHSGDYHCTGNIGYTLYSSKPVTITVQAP

C-reactive protein (native CRP from human fluid) (from UniProt P02741 19-224)
Kd [1]: 4.2 µM

C-reactive protein (native CRP from human fluid) (from UniProt P02741 19-224) (natural protein)
Kd [2]: 3.4 to 4.9 µM
